Source: the nanobody polyreactivity screen of Harvey et al. (2022)

Experiment: yeast display, Sf9 membrane polyspecificity reagent, FACS + sequencing; frameworks hold sequencing errors
Method in brief: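 Galactose induction of a Saccharomyces cerevisiae BJ5465 synthetic nanobody display library ran 36–48 hours. The cells were then stained for 1 hour at 4 °C with 10% biotinylated, detergent-solubilized Sf9 membrane reagent, pulled down on streptavidin microbeads and FACS-sorted into low and high (top ~1%) gates on expression and reagent-binding fluorescence. Labels for polyreactivity follow the gate of origin.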

Row | Sequence | polyreactivity (PSR sort gate)
1 | QVQLVESGGGLVQAGGSLRLSCAASGRILGSYAMGWYRQAPGKERELVAGISWRGGRTYYADSVKGRFTISRDNAKNTVYLQMNSLKPEDTAVYYCATRSSSRKYGYWGQGTQVTVSS | high polyreactivity
2 | QVQLVESGRGLVQAGGSLRLSCAASGIIFYENTMGWYRLAPGKERELVASISWSGGRTYNADSVKGRFTISRDNAKNTVDLQMNSLKPEDTAVYYCAGRPYYLYIYNFWGQGTQVTVSS | high polyreactivity
3 | QVQLVETGGGLVQAGGSLRLSFGASGSTFSQYGMGLYRQAPGKVRELVAAIRRSGGRTYYADSVKGRFTISLDNAKNTVYLQMNSLKPEDTAVYYCAADEYRYYFYRPGIGYDYWGQGTQVTVSS | low polyreactivity
4 | QVQLVESVGGLVQAGGSLRLSCAASGSIFVNNAMGWYRQAPGKERELVAAISSRSSRTFYADSVKGRFTISRDNAKNTVYLQINSLKPEDTAVYYCNAVGGRKFGEYDYWGQGTQVTVSS | high polyreactivity
5 | QVQLVESGGGLVQAGGSLRLSCAATGRIFGRNAMGWYRQAPGKERELVAAINSGVSTYYADSVKGRFTISRDNAKNTVYLQMNSLKPQDTAVYYCANAPPRRYYDFDYWGQGTQVTVSS | low polyreactivity
6 | QVQLVESGGGLVQAGGSLRLSCAASGFTISAYAMGWYRQAPGKERQLVASISRGGITNYADSVKGRFTISRDNAKNTVYLQMTSLKPEETAVYYCAAETRNHGILYDYWGQGTQVTVSS | high polyreactivity
7 | QVQLVESGGGLVQAGGSLRLSCAASGSIFGYYAMGWSRQAPGKERELVASISSTGSTYYADSVKGRFTISRDNAKNTVSLQMNSLKPEDTAVYYCAADTLIFPWGFESWGQGTQVTVSS | high polyreactivity
8 | QVQLVESGGGLVQAGGSLRLICAASGRTSGGNGMGWYRQAPGKERELVAAITWDGDSTYADSVKGRFTISRDNAKNTDYFQMNSLKPEDTAVYYCAAGVYQSDYYYWGQGTQVTVSS | low polyreactivity
9 | QVQLVESGGGLVQAGGSLRLSCSASGRTFSWYAMGWYRQAPGKERELVAAISWSGGSTYYADSVKGRFTISRDNAKNTVYLQMNSLKPEDTAVYYCNAVGRPLRGYDYWGQGTQVTVSS | high polyreactivity
10 | QVQLVESGGGLVQAGGSLRLSCAASGLIFVNYAMGWYRQAPGKERELVAAISVSGGSTYYADSVKGRFTISRDNAKNTVYLQMNSLNPEDTAVYYCNAYFRSQRYGYRVDYWGQGTQVTVSS | high polyreactivity
11 | QVQLVESGGGLFQAGGSLRLSCAASGRIFPWNTMGWYRQAPGKERELVAGINNGDRTYYADSVKGRFTISRVNAKNTVYLQMNSLKPEDTAVYYCAVDTWYFLFQYGYYQEGDYWGQGTQVTVSS | low polyreactivity
12 | QVQLVESGGGLVQAGGSLRLSCAASGRTFWPNVMGWYRQAPGKERELVAAITWGDASTYYADSVKGRFTISRDNAKNTVYLQMNSLKPEDTAVYYCAASDYGRTYDYWGQGTQVTVSS | low polyreactivity
13 | QVQLVESGGGLVQAGGSLRLSCAASGYTFGAYAMGWYRQAPGKERELVAAIPVRAGRTYYADSVKGRFTISRDNAKNTVYLQMNSLKPEDTAVYYCARRNPLGGNEHDYWGQGTQVTVSS | low polyreactivity
14 | QVQLVESGGGLVQAGGSLLLSCAASGRTFILNAMGWYRQAPGKERELVAAISWSGGSTYYADSVKGRFTISRDKSKNTVYLQMNSLKPEDPAVYYCAAETYAYLFHTYDYGGQGTQVTVSS | low polyreactivity
15 | QVQLVESGGGLVQAGGSLRLSCAASGSNFLIYAMGSYSQAPGKERELVAAITFSGCSTYADSVKGRFTISRENAKNTVYLQMNSLKPEDTAVYYCAADSTKYAYDYWGQGTQVTVSS | low polyreactivity
16 | QVQLVESGGGLVQAGGSLRLSCAASGSIFGWYAMGWYRQAPGKERELVAAISSSDGSTYYADSVKGRFTISRDNANNTVYFPMNSLKPEDTEVYYCATDYAFTYAQYDYWGQGTQVTVSS | low polyreactivity
17 | QVQLVESGGGLVQAGGSLRLSCAASGFIFVKYAMGWYRQAPGKEREFVAAISQSGGNTYYADSVKGRFTISRDNAKNTVYLQMNSLKPEDTAVYYCNAKSYTRRSYYTPTVPGDYWGQGTQVTVSS | low polyreactivity
18 | QVQLVESGGGLVQAGGSLRLSCAASGIIFGDNAMGWYRQAPVTERELVAAIDSGGSTYYADSVKGRFTISRDNAKNTVYLQMISLKPEDTAVYYCNAVTAFGYSYAGWDYDQYNYWGQGTEVTVSS | low polyreactivity
19 | QVQLVESGGGLVQAGGSLRLSCAASGRTFGVYAMGWYRQAPGKERELVAAITGRGGSTYYADSVKGRFTISRDNAKNTVYLQMNSLKAEDTALYYCNAELYEYQSWDDYWGQGTQVTVSS | low polyreactivity
20 | QVQLVESGAGLFQAGGSLRLSCAASGRTFVKNAMAWYRQAPGKERELVAAISTSGGRTYYADSVKGRFTISRDNAKKTVYLQMNSLKPEDTAVYYCGAVLYATRPVYGFDSCGQGTQVTVSS | high polyreactivity
21 | QVQLVESGGGLVQAGGSLRLSCAASGRTFKAYAMGWYRQAPGKERELVAGISWSGGNTYYADSVKGRFTISRDNAKNTVYLQMNSLKPEDTAVYYCAASLGGLWEDDYWGQGTQVTVSS | high polyreactivity
22 | QVQLVESGGGLVQAGGSLRLSCAASGRIFYFYAMVWYRQAPGKERELVAAISTSGGSTYYADSVKGRFTISRDNAKNTVYLQMNSLKPEDTAVYYCAARFRYYGSEYDYWGQGTQVTVSS | low polyreactivity

Row | Sequence | polyreactivity (PSR sort gate)
23 | QVQLVESGGGLVQAGGSLRLSCAASGSTFYWYAMGWYRQAPGKEREFVAAISLGSGSTYYADSVKGRFTISRDNAKNTVYLQMNSLKPEDTAVYYCATVPWYIKVGQKRNDYWGQGTQVTVSS | high polyreactivity
24 | QVQLVESGGGLVQAGGSLRLSCAASGSIFVYNAMGWYRQAPGKERELVAAISSTGGSTYYADSVKGRFTISRDNAKNTVYLQMNSLKPEDTAVYYCARQGRYTRGDYWGQGTQVTVSS | high polyreactivity
25 | QVQHVESGGGLVQAGGSLRLSCAASGFIFLYYAMGWYRQAHGQERELVAAISRSGGRTYYADSVKGRFTISRDTAKNTVYLQMNSLKPEDTAVYYCAADRLGSISGYDYWGQGTQVTVSS | high polyreactivity
26 | QVQLVESGGGLVQAGGSLRLSCAASGRTFNWYAMGWYRQAPGKERELVAAIRVNGGITYYADSVKGRFTISRDNAKNTVYLQMISLKPEDTAVYYCAVYSRQGLGYWGQGTQVTVSS | high polyreactivity
27 | QVQLVESGGGLVQAGGSLRLSCAASGRIFASYVMGWYSQAPGKERELVAAISRSGVSTYYADSVKGRFTISRDNEKNTVYLQINSLIPEDTAVYYCATTRFPRSFQEFGYWGQGTQVNVSS | high polyreactivity
28 | QVQLVESGGGLVQAGGSLRLSCAASGSIFTHNAMGWYRQAPGKERVLVAAISSGGSTNYADSVKGRFTISRDNAKNTVYLQMNSLKPEDTAVYYCAKSIDGWYWRRRRYDYWVQGTQVTVSS | low polyreactivity
29 | QVQLVESGGGLFQAGGILRLSCAASGRTFHRNAMGWYRLAPGKERELVAAITGDGRTNYADSVKGRFTISRDNAKNTVYLQMNSLKPEDTAVYYCAARFSYRSYDYWGQGSQVTVSS | low polyreactivity
30 | QVQLVESGGRLVQAGGSLRLSCAASGSIFRFNTMGWYRQAPGKERELVAVIRYRSGSTYYADTVKGRFTISRDNAKYTVYLQMNSLKPEDTAVYYCAAKRRSTYDYWGQGTQVTVSS | high polyreactivity
31 | QVQLVESGGGLVQAGGSLRLSCAASGFIFRYYAMGWYRQAPGKERELVAAISGNGGNTYYADSVKGRFTISRDNAKNTVYLQMNSLKPEDTAVYNCNRAPGYRGGRYDYWGQGTQVTVSS | high polyreactivity
32 | QVQLVESGGGLVQAGGSLRLSCAASGFIFRRYAMGWYRQAPGKERELVAAISWRSGSTYYADSVKGRFTISRDNAKNTVYLQMNSLKPEDTAVYYCAAKDQATYQLNYWGQGTQVTVSS | high polyreactivity
33 | QVQLVESGGGLVQAGGSLRLSCAASGRIFYYNSMGWYREAPGKERELVAAIRSGGGSTYYADSVKGRFTISRDNAKNTVYLQMNSLKPEDTAVYYCAAEPSQRYPWSGYDYWGQGTQVTVSS | low polyreactivity
34 | QVQLVESGGGLVQAGGSLRLSCAASGSTFAFYAMGWYRQAPGKEREFVAAITWDGGTTYYADSVKGRFTISLDNAKNTVYLQMNSLKPEDTAVYYCATQYLSYLYAGRYDYWGQGTQVTVSS | low polyreactivity
35 | QVQLVESGGGIVQAGGSLRLSCAASGSTFYVYAMGWYRQAPGKERELVAAITVRGGSTYYADSVKGRFTISRDNAKNTVYLQMNSLKPEDTSVDYCNAEGTYGYWRSYNYWGQGTQVTVSS | high polyreactivity
36 | QVQLVESGGGLVQAGGSLRLICAASGRIFVRNARGLYRQAPGTERELVASISQNGGRTYYADSVKGRFTISRDNAKNTVYLQMNSLKPEDTAVYYCARGRGGSRPGLDYWGQGTQVTVSS | high polyreactivity
37 | QVQLVESGGGLVQAGGSLRLSGAASGSTFYPNAMGRYRQAPGKERELVAAISGRGGRTYYADSVKGRFTISRDFAKNTVYLQINSLKPEDTAVYYCNIVRASDHYDYWGQGTQVTVSS | high polyreactivity
38 | QVQLVESGGGLVQAGGSLRLSCAASGSTFGNNAMGWYRQAAGKERELVAGINSGGSTTYADSVKGRFTISRDNAKNTVYLQMNSLKPEDTAVYYCAAVYYYYSWYSKHYYWGQGTQVTVSS | low polyreactivity
39 | QVQLVESGGGLVQAGGSLRLSCAASGITFYWYAMGWYRQAPGKERELVARISSTGGSTYYADSVKGRFTISRDNAKNTVYLQMNSLKPEDTAVYYCNAVGRLYLYGSWGQGTQVTLSS | high polyreactivity
40 | QVQLVESGGGLVQAGGSLRLSCAASGFIIAPNAMGWYRQAPGKDRELVAAISGGGSTYYADSVKGRFTISRDNAKNTVYLQMNSLKPEDTAVYYCAVAGRRGDEYDYWGQGTQVTVSS | low polyreactivity
41 | QVQLVESGGGLVQAGGSLLLSCAASVFIYRWYAMGWYRPAPGKERELVAGISASGGSTYYADSVKGRFTISRDNAKNTVYLQMNSLKPEDTAVYYCAAYRRNSRWELDYWGQGTQVTVSS | high polyreactivity
42 | QLQLVESGGGLVQAGGSLRLSCAASGSTYGPYAMGWYRQAPGKERELVSAITISGDSTNYADSVKGRFTISRDNAKNTVYLQMNSLKPEDTAVYYCAAAYYWLQSWYDYWGQGTQVTVSS | low polyreactivity
43 | QVQLVESGGGLVQAGGSLRLSCAASGSIFDDYAMGWYRQAPGKERELVAAISWSGGSTYYADSVKGRFTISRDNAKNTVYLQMNSLKPEDTAVYYCAAYDYDYLYGEYYWGQGTQVTVSS | low polyreactivity
